According to PMC10922792 (Journal of molecular biology, 2024):

Molecular target: T1, hPASK PAS-A domain (residues 131–237) (human, UniProt Q96RG2 131-237, uniformly 15N-labeled)
T1 sequence (looked up): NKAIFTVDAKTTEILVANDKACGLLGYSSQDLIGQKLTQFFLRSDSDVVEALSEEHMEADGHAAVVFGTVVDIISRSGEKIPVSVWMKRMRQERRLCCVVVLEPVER
Test: NMR titration

MRGAAGLQREIQEGAYSGSCYHRDGL (peptide, UniProt Q96RG2 879-904, looked up) [PIM peptide (PASK AA 879–904)] was tested, and the Kd was 2400 µM.
